For assay [1], the target named is full-length human PD-L1 on K562 cells (human) (UniProt Q9NZQ7). Nature of the assay: FACS, PD-L1/K562 cells. A general note: In flow cytometry, cells or beads pass a laser one at a time.
Assay [2] concerns the target PD-L1 on PD-L1 aAPC/CHOK1 cells (Promega J1250). Nature of the assay: cell-based or functional assay.
In assay [3] the target is human PD-L1-Fc (human) (UniProt Q9NZQ7). Kind of assay: SPR, PD-L1-Fc captured, scFv analyte. In general terms: In SPR one partner is held on a chip, and binding of the other changes the refractive index at the surface.
Assay [4] deals with PD-L1 biotinylated (PD-1/PD-L1 TR-FRET assay kit, BPS 72038) (Homo sapiens (Human)) (UniProt Q9NZQ7). Kind of assay: HTRF competition, competitor PD-1-Eu. On the technique in general: In TR-FRET formats the signal depends on donor and acceptor labels being close together.
Assay [5] addresses human PD-L1-Fc (human) (UniProt Q9NZQ7). Kind of assay: ELISA, coated PD-L1-Fc, anti-FLAG HRP.

Usually EC50 stands for the concentration needed to bring the measured effect to its halfway point. A low value points to a more potent agent. The Kd is the concentration at which binding is half-saturated. A word on the koff: it is the rate constant with which the complex falls apart. A low value points to a long-lived complex. The kon is the second-order rate constant of association. A lower kon goes with slow association. The term IC50 denotes the point on the concentration scale where inhibition reaches its midpoint.

B1: 2018EP161-F04 scFv (scFv, part only; not given: linker and tags, not shown: small tags and cut ends)
scFv, part: QMQLVQSGAEVKKPGATVKISCKVSGYTFTDYYMHWVQQAPGKGLEWMGLVDPEDGETIYAEKFQGRVTITADTSTDTAYMELSSLRSEDTAVFYCATDGSGSYYLTLGQGTLVTVSSNFMLTQPSSLSASPGASASLTCTLPSGINVGPYGIFWYQQKPGSPPQYLLRYKSNSENHQGSGVPSRFSGSEDASANVGILLISGLQSEDEADYYCMIWHSSAWVFGGGTKVTVL
In assay [1], B1 had a 50% effective concentration (EC50) of 5.8 nM.

B2: 2018EP164-F04 scFv (scFv, part only; not given: linker and tags, not shown: small tags and cut ends)
scFv, part: QVQLQQWGAGLLKPSETLSLTCAVYGGSFSGYYWSWIRQPPGKGLEWIGEINHSGSTNYNPSLKSRVTISVDTSKNQFSLKLSSVTAADTAVYYCARGRRLRYFDWAAYNWFDPWGQGTLVTVSSQSALTQDPAVSVALGQTVRITCQGDSLRSHYASWYQQKPGQAPVVVVYDNSDRPSGIPDRFSGSNSGNTATLTISRVEVGDEADYYCQVWDSSSDHYVFGTGTKV
On to B2, for which, in assay [2], the Jurkat NFAT reporter assay EC50 stood at 129 nM. In the assay with human PD-L1-Fc (human) [3], this molecule returned a Kd of 2.94 nM, a koff of 0.000722 s⁻¹ and a kon of 245000 M⁻¹ s⁻¹. The molecule further displayed a 50% inhibitory concentration (IC50) in assay [4] of 173 nM. The same molecule yielded an EC50 in the assay with human PD-L1-Fc (human) [5] of 1.27 nM.

The values are drawn from patent US20250340646A1.
